From patent US20060088847

Sequence of Flag-p53, P04637 (P04637 whole entry, looked up): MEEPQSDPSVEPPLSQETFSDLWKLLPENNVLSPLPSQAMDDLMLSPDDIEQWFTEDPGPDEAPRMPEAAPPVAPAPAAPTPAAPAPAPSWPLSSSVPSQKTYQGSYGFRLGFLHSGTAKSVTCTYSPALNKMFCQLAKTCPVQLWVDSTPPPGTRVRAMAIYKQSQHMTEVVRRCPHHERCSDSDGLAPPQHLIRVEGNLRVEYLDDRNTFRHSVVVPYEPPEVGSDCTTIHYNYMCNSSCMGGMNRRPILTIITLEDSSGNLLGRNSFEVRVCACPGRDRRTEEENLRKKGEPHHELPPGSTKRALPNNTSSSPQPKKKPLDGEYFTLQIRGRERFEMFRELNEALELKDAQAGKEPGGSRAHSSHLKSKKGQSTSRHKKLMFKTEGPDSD
Sequence of GST-B23 protein, P06748 (P06748 whole entry): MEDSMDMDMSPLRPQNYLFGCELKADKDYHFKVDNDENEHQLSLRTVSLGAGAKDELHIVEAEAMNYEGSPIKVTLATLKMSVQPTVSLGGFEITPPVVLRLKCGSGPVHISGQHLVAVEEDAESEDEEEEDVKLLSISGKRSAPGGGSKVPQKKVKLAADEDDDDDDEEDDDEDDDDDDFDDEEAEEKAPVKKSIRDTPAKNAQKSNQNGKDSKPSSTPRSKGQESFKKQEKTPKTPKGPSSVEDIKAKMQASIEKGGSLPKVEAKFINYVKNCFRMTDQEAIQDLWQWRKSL

B1: GST-ARF-BP1 (3760-4374) (protein)
chain: IQAAVRQLEAEADAIIQMVREGQRARRQQQAATSESSQSEASVRREESPMDVDQPSPSAQDTQSIASDGTPQGEKEKEERPPELPLLSEQLSLDELWDMLGECLKELEESHDQHAVLVLQPAVEAFFLVHATERESKPPVRDTRESQLAHIKDEPPPLSPAPLTPATPSSLDPFFSREPSSMHISSSLPPDTQKFLRFAETHRTVLNQILRQSTTHLADGPFAVLVDYIRVLDFDVKRKYFRQELERLDEGLRKEDMAVHVRRDHVFEDSYRELHRKSPEEMKNRLYIVFEGEEGQDAGGLLREWYMIISREMFNPMYALFRTSPGDRVTYTINPSSHCNPNHLSYFKFVGRIVAKAVYDNRLLECYFTRSFYKHILGKSVRYTDMESEDYHFYQGLVYLLENDVSTLGYDLTFSTEVQEFGVCEVRDLKPNGANILVTEENKKEYVHLVCQMRMTGAIRKQLAAFLEGFYEIIPKRLISIFTEQELELLISGLPTIDIDDLKSNTEYHKYQSNSIQIQWFWRALRSFDQADRAKFLQFVTGTSKVPLQGFAALEGMNGIQKFQIHRDDRSTDRLPSAHTCFNQLDLPAYESFEKLRHMLLLAIQECSEGFGLA
p53 ubiquitination, in vitro ubiquitination assay with purified components (Flag-p53, P04637): high levels of ubiquitinated p53 were generated by ARF-BP1 (lane 2) | NPM/B23 ubiquitination, in vitro ubiquitination assay (GST-B23 protein, P06748): no significant ubiquitination of NPM/B23 was detected by Western blot analysis with the anti-NPM/B23 antibody
